± gives the standard error.
B1: library; numbered along this chain (parent)
chain: MATDAALRRLLRLHRTEIAVAVDSAFPLLHALADHDVVPEDKFQETLHLKEKEGCPQAFHALLSWLLTQDSTAILDFWRVLFKDYNLERYGRLQPILDSFPKDVDLSQPRKGRKPPAVPKALVPPPRLPTKRKASEEARAAAPAALTPRGTASPGSQLKAKPPKKPESSAEQQRLPLGNGIQTMSASVQRAVAMSSGDVPGARGAVEGILIQQVFESGGSKKCIQVGGEFYTPSKFEDSGSGKNKARSSSGPKPLVRAKGAQGAAPGGGEARLGQQGSVPAPLALPSDPQLHQKNEDECAVCRDGGELICCDGCPRAFHLACLSPPLREIPSGTWRCSSCLQATVQEVQPRAEEPRPQEPPVETPLPPGLRSAGEEVRGPPGEPLAGMDTTLVYKHLPAPPSAAPLPGLDSSALHPLLCVGPEGQQNLAPGARCGVCGDGTDVLRCTHCAAAFHWRCHFPAGTSRPGTGLRCRSCSGDVTPAPVEGVLAPSPARLAPGPAKDDTASHEPALHRDDLESLLSEHTFDGILQWAIQSMARPAAPFPS

Variants of: B1
Experiment: AIRE transcriptional activation functional score (insulin promoter-GFP; nonsense median 0, synonymous median 1) (normalised score); higher = higher AIRE activity (more reporter activation)
Details: with insulin promoter-GFP reporter in HEK293
Method: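 Deep mutational scan of full-length human AIRE (codon-optimized cDNA, DT-POPCode NNN libraries over three regions) integrated at a Bxb1 landing pad in HEK293 cells carrying an insulin core promoter-GFP reporter at a Flp-In site. Cells were sorted for the top 10% GFP about 14 days after transfection. Variant frequency log-ratios (select vs non-select, TileSeq) were rescaled so that the nonsense median is 0 and the synonymous median is 1, then averaged over biological replicates.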

Row | Variant | AIRE transcriptional activation functional score
1 | K294S | 0.706 ± 0.33
2 | P542C | 1.05 ± 0.21
3 | V22K | -1.05 ± 0.071
4 | V22F | -0.0603 ± 0.13
5 | R371G | 1.55 ± 0.068
6 | L122D | 1.44 ± 0.14
7 | L122E | 0.827 ± 0.24
8 | E353A | 1.07 ± 0.18
9 | C457P | 0.211 ± 0.21
10 | D98R | 0.621 ± 0.47
11 | D98L | 0.703 ± 0.56
12 | P407L | 1.06 ± 0.27
13 | V188C | 0.891 ± 0.073
14 | K42I | 0.472 ± 0.67
15 | K42G | -0.403 ± 0.21
16 | P422G | 1.53 ± 0.095
17 | P422S | 0.814 ± 0.39
18 | A537V | 0.891 ± 0.073
19 | C449F | 0.317 ± 0.12
20 | G374C | 1.55 ± 0.21
21 | G374R | 1.31 ± 0.35
22 | L29K | 0.34 ± 0.67
23 | P125H | 1.27 ± 0.22
24 | S241N | 1.13 ± 0.16

Row | Variant | AIRE transcriptional activation functional score
25 | F215C | 0.382 ± 0.089
26 | R132M | 0.275 ± 0.13
27 | A386Q | 0.654 ± 0.073
28 | A386R | 1.1 ± 0.29
29 | G486Q | 0.85 ± 0.15
30 | S24I | 0.123 ± 0.15
31 | E137C | 0.524 ± 0.46
32 | G269Q | 0.849 ± 0.18
33 | L75F | 0.688 ± 0.28
34 | P350L | 1.17 ± 0.092
35 | P350H | 1.47 ± 0.12
36 | D41S | 0.72 ± 0.4
37 | P154R | 0.579 ± 0.53
38 | P154I | 1.59 ± 0.16
39 | S217N | 0.895 ± 0.22
40 | S217K | 0.417 ± 0.29
41 | Q349K | 1.06 ± 0.14
42 | Q349T | 1.12 ± 0.21
43 | P254D | 0.547 ± 0.13
44 | P254L | 1.01 ± 0.3
45 | P254W | 1.07 ± 0.05
46 | E51F | -0.754 ± 0.3
47 | W78T | 0.642 ± 0.21
48 | G306L | 0.492 ± 0.2

Row | Variant | AIRE transcriptional activation functional score
49 | G306D | 0.954 ± 0.19
50 | A141V | 1 ± 0.36
51 | A404W | 1.16 ± 0.096
52 | G274A | 0.889 ± 0.18
53 | C55I | 1.19 ± 0.74
54 | F236S | 0.712 ± 0.16
55 | K253L | 0.694 ± 0.29
56 | Q290K | 0.932 ± 0.018
57 | R113C | 1.3 ± 0.1
58 | P368V | 1.13 ± 0.21
59 | A121R | 0.922 ± 0.42
60 | R316H | 1.36 ± 0.43
61 | S168K | 1.08 ± 0.18
62 | S168F | 1.44 ± 0.11
63 | I224C | 0.709 ± 0.38
64 | C311M | 1.62 ± 0.066
65 | R139T | 0.641 ± 0.57
66 | A432F | 1.06 ± 0.25
67 | Q534K | 0.887 ± 0.14
68 | W335Y | 0.768 ± 0.46
69 | W335N | 0.721 ± 0.19
70 | V479L | 0.811 ± 0.29
71 | D297S | 0.838 ± 0.31
72 | L81I | 0.143 ± 1.1

Row | Variant | AIRE transcriptional activation functional score
73 | L81F | 0.331 ± 0.34
74 | P400C | 0.972 ± 0.39
75 | L519G | 0.259 ± 0.25
76 | P460A | 1.14 ± 0.2
77 | D36N | 1.07 ± 0.59
78 | A58R | 0.31 ± 0.42
79 | A271C | 1 ± 0.56
80 | A271V | 1.09 ± 0.14
81 | S248F | 1.09 ± 0.22
82 | G227S | 0.225 ± 0.36
83 | G227E | 0.368 ± 0.087
84 | L444W | 0.452 ± 0.12
85 | S278I | 1.04 ± 0.18
86 | S278V | 1.09 ± 0.31
87 | E376V | 1.24 ± 0.12
88 | S135D | 1.56 ± 0.28
89 | S135K | 1.43 ± 0.35
90 | S135A | 2.31 ± 0.099
91 | S135C | 0.747 ± 0.12
92 | T151I | 1.3 ± 0.26
93 | T151H | 1.34 ± 0.22
94 | P380F | 0.369 ± 0.28
95 | L529M | -0.503 ± 0.086
96 | L470S | 0.622 ± 0.39

Row | Variant | AIRE transcriptional activation functional score
97 | F459C | 0.343 ± 0.067
98 | P116S | 1.12 ± 0.27
99 | A144C | 1.04 ± 0.26
100 | A144N | 0.39 ± 0.33
101 | H523S | 1.25 ± 0.23
102 | P95W | 0.55 ± 0.12
103 | D312C | 1.09 ± 0.21
104 | D76H | 0.235 ± 0.16
105 | K243F | 0.81 ± 0.45
106 | L63V | 0.617 ± 0.34
107 | Q173V | 1.32 ± 0.38
108 | H319P | 1.4 ± 0.12
109 | L283Y | 1.19 ± 0.19
110 | S196Q | 1.11 ± 0.19
111 | S196I | 0.678 ± 0.17
112 | E270Y | 1.38 ± 0.056
113 | E270L | 1.41 ± 0.26
114 | T524G | 0.619 ± 0.19
115 | F453I | 0.235 ± 0.3
116 | F453K | -0.248 ± 0.043
117 | I528H | -0.237 ± 0.12
118 | I528R | 0.161 ± 0.23
119 | I528S | -0.0342 ± 0.35
120 | L158Y | 1.07 ± 0.39

Row | Variant | AIRE transcriptional activation functional score
121 | K131Q | -0.125 ± 0.077
122 | E171H | 1.64 ± 0.16
123 | E207H | 0.756 ± 0.28
124 | P355D | 1.13 ± 0.15
125 | E485G | 1.05 ± 0.11
126 | K102Y | 1.3 ± 0.33
127 | K102T | 1.28 ± 0.56
128 | T364Q | 0.914 ± 0.26
129 | T364A | 0.985 ± 0.21
130 | P56F | 0.968 ± 0.21
131 | P56Y | -0.155 ± 0.82
132 | P266H | 1.08 ± 0.11
133 | E383W | 0.951 ± 0.11
134 | G477D | 0.678 ± 0.17
135 | G477E | 0.302 ± 0.23
136 | A186C | 1.29 ± 0.13
137 | V37I | 0.337 ± 0.18
138 | L255N | 0.614 ± 0.2
139 | Q94L | 0.662 ± 0.36
140 | Q94I | 1.17 ± 0.84
141 | M536I | 1.19 ± 0.15
142 | Q342E | 0.971 ± 0.22
143 | Q342V | 0.754 ± 0.23
144 | S250N | 0.847 ± 0.16

Row | Variant | AIRE transcriptional activation functional score
145 | S249P | 0.451 ± 0.43
146 | V436A | 0.0856 ± 0.18
147 | Q172Y | 1.7 ± 0.64
148 | Q172E | 0.286 ± 0.3
149 | G431C | 0.854 ± 0.15
150 | T68K | 0.868 ± 0.12
151 | P357V | 0.974 ± 0.11
152 | T468W | 1.29 ± 0.042
153 | Q157W | 0.173 ± 0.069
154 | R471G | 0.676 ± 0.33
155 | R471K | 0.921 ± 0.077
156 | P483S | 0.811 ± 0.27
157 | P483M | 1.36 ± 0.045
158 | L428W | 1.31 ± 0.044
159 | L428M | 1.32 ± 0.089
160 | L428Q | 1.01 ± 0.025
161 | E508K | 0.0783 ± 0.32
162 | A451I | 0.663 ± 0.18
163 | S187N | 0.716 ± 0.092
164 | S187V | 0.398 ± 0.33
165 | P126G | 1.42 ± 0.35
166 | D502P | 0.765 ± 0.28
167 | G333R | 1.08 ± 0.33

Reference: the supplement of paper PMC12667976
